The assay concerns the target human NPC1L1 (Niemann-Pick C1-like 1), wild type, C-terminal Flag tag (human) (UniProt Q9UHC9). The assay can be described thus: cryo-EM structure.

The substance “human NPC1L1 (Niemann-Pick C1-like 1), wild type, C-terminal Flag tag (from UniProt Q9UHC9-2 22-1332) (natural protein)” showed a stoichiometry N of 2.

The values above are taken from paper PMC8373123.
